Experimental data: the supplement of paper PMC12764529
± gives the half width of the 95% confidence interval.

Assay: folding stability dG unfold from chymotrypsin proteolysis; higher = more stable
How it was run: (§1)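 Mini-proteins designed to be under 80 residues and free of cysteine were carried in a PA-tagged cDNA display construct and digested with trypsin and with chymotrypsin. Each protease was applied at 11 threefold-diluted concentrations, alongside a no-protease condition, before sequencing. K50 came from Bayesian fitting of the sequencing counts, and unfolding free energy was obtained by comparing it with a sequence-predicted unfolded-state K50 and a shared folded-state K50, for each protease separately or for both together. Designs were retained only if their AlphaFold2 dimer inter-PAE exceeded 15.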
For “SAEKTLTIPITLENGATLTITVYEDRIEATLEVDGLTGTGYTLPDGTVVLNLRAPGNKPIASPVFTLDLSAG [r14_213_TrMRF]”, the “folding stability dG unfold” value was 2.48 ± 0.06 kcal/mol. In the case of “SAGGSAGGSMKITKSPSGYYTVTINLPNGTTVEIKVSTSDPNATDEQIIEIAKPKAEEILKKSSAGGSAGGS [r12_642_JUSTAS]”, the “folding stability dG unfold” value is reported as 2.87 ± 0.12 kcal/mol. For “SAGGSAMLVVADDPEVVRELVEPLFPDGEPVLVVGATEEEAAKLVEELKKKGLPFKVVVVRRPDRPSAGGSA [r15_567_TrMRF]”, the “folding stability dG unfold” value was -0.039 ± 0.23 kcal/mol. For “SAGPWITIPFKVKSLEEARNIIREIAQTFGLPMKVEDIQVTEDQLEKNREPGDPIRITVRYPNGREIEISAG [r5_503_TrROS]”, the “folding stability dG unfold” value was 1.69 ± 0.11 kcal/mol. In the case of “SAGGSAGGSAGMLPLEELLKKNPKPIKVLVKVGDTEYLVEVTPGEKKYTIKVKPLKKSKPSAGGSAGGSAGG [r11_549_TrMRF]”, the “folding stability dG unfold” value is reported as 1.55 ± 0.047 kcal/mol. In the case of “SAGGSAKLTIELVISDMSPEDAEIAAENIRIELIKKGIPEEEIENVDIKVIVAPVYLDEDNNLILGSAGGSA [r15_684_TrMRF]”, the “folding stability dG unfold” value is reported as 0.657 ± 0.035 kcal/mol. For “SMTVEVELTVTVEVVDPKTGKKKTVTVKVTVKVRVTEVKTKDGKTEVKVELSEEALEEARRLAEELAKKKSA [r9_698_TrROS_Hall]”, the “folding stability dG unfold” value was 2.95 ± 0.38 kcal/mol. For “SAGGSATIEEIANMPAEEIAQEHGMEVKDVDIERVPNGTITVEVEYEPPDGKKHKHTFQIKIDEGQSAGGSA [r15_805_TrROS]”, the “folding stability dG unfold” value was 0.251 ± 0.11 kcal/mol. For “SGSPDELEVVESEETVNIPPEELEAKYGIKVPENSTVVIKTKTLKPPSGNDIVEPEIKIYDPVTNEWIELSA [r9_349_JUSTAS]”, the “folding stability dG unfold” value was -0.474 ± 0.27 kcal/mol. With “SAGGTSPVTIPVTFDDLPPDAVDEAKARAEELAEELRAQGHEVLSVTIEIEPGRVTVTLTVTFPGGAPLSAG [r5_515_JUSTAS]” the “folding stability dG unfold” value was 0.623 ± 0.054 kcal/mol. For “SAGGGDWYKVTVKVDGNPEVAEALVEKLLEEVGEEVVFEPRPGEQTVTFYVPKELLPLLEELGIEVEPSAGG [r13_156_TrMRF]”, the “folding stability dG unfold” value was 2.632 ± 0.02 kcal/mol. With “TPLTTSTTTVPPSEIATPVTFNAPLSPDTSVTITTYDSATGTTSPVFSTTSASVTLTDLPNVSTATVVVVSS [r1_224_JUSTAS]” the “folding stability dG unfold” value was -0.255 ± 0.23 kcal/mol. In the case of “SAGGSAGGSAMTPVTIKVTLTNPATGSTTTKTIYVPEPNPSVEEIKKKLPSDWTVTSITLSSAGGSAGGSAG [r3_80_JUSTAS]”, the “folding stability dG unfold” value is reported as 0.828 ± 0.16 kcal/mol. For “SAKKTIVVPVEKLKELLDALKEAGYEVKVEYNKENPVVTVTITVKDKNGKELKIELVVDKKTGLVTIKLSAG [r14_169_TrROS_Hall]”, the “folding stability dG unfold” value was 2.45 ± 0.051 kcal/mol. In the case of “SAGGSMGKTPDGGEVEFFEKPEENLIFAVVKHPDGSYYVAVFKKDEDKIELIDVKEVPEGEIEELASAGGSA [r2_336_TrMRF]”, the “folding stability dG unfold” value is reported as 2.07 ± 0.031 kcal/mol. In the case of “SAGGKYVMFPFDSPEDLKDLLPPGYPVEIHMMPPKGKHRTRTFTPDEIKLELPPGENFYFMIKVKPPDSAGG [r13_461_TrROS]”, the “folding stability dG unfold” value is reported as 1.94 ± 0.33 kcal/mol. In the case of “SAGGSAGGSAGGKKIRIVVPKENLEKIEELAKKLGPDVKIVKVEYFKETDYVVVEVEVKSAGGSAGGSAGGS [r10_23_TrROS_Hall]”, the “folding stability dG unfold” value is reported as 1.98 ± 0.075 kcal/mol. For “SALKISVTVDPDGPTATATLELYNPETGKPTTLTATIHRLPDGSYLVTIHFPSNNKTITFTVPEDGVITLSA [r9_1220_TrMRF]”, the “folding stability dG unfold” value was 3.48 ± 0.038 kcal/mol. For “SAGGLEELAKEIADDLQKRNPDMNIEVQVEVHEYKIPPGQKMRHPDGEEKEVPPGQKVYMFTIRVTPSAGGS [r16_357_TrROS]”, the “folding stability dG unfold” value was 1.26 ± 0.27 kcal/mol. In the case of “SADVVVIHARSPEELRAALEEARKEGKTVRIVVSREELDELKALLPEDVKIEVLKNENGEELVVIEVKVSAG [r14_127_TrROS_Hall]”, the “folding stability dG unfold” value is reported as 3.11 ± 0.28 kcal/mol. In the case of “SSATVTFTVELPDDSVIVSVRIDAEEYDPGPPWVRVTIEVEIYDKNGELLATLRFEFLLPREVLEELRKSSA [r9_234_TrMRF]”, the “folding stability dG unfold” value is reported as 5.74 ± 0.3 kcal/mol.

Assay: folding stability dG unfold (combined trypsin and chymotrypsin); higher = more stable
How it was run: as §1
In the case of “SAGGSAGGSPANIKITTTLDTETGYLTIVAYNPATGKVTVLTAKIYGNVPHIDGLEALFGALGSAGGSAGGS [r20_131_TrMRF]”, the “folding stability dG unfold” value is reported as 2.7 ± 0.18 kcal/mol. With “SAGGSAGGSAGGMPTYEVTLEPDPTGGDVYTVTVTFPDGSTVTRNATPAELKAEGLTVKVSAGGSAGGSAGG [r7_14_JUSTAS]” the “folding stability dG unfold” value was 0.967 ± 0.072 kcal/mol. With “SAGGSAGGGMSMEELKTVDYPLVVTVPLPDGSTVTVSAKVPAEDLDKAIPEVEERAKALAEEGASAGGSAGG [r6_903_JUSTAS]” the “folding stability dG unfold” value was 0.843 ± 0.059 kcal/mol. For “SAGKKKIKIKLENGETKTLEIKPGETVEITFPNGLKATITKVKDGKIEIKVKEVYVKDKNGKWKKLKDLSAG [r5_417_TrROS_Hall]”, the “folding stability dG unfold” value was 2.29 ± 0.29 kcal/mol. With “EAFEKAIEAAIEAAEKGEKETEITLPLPDGKAIRVHATVEVKDGKPVRVDIHVELYGPNNVPYPFTLTITAS [r1_254_TrMRF]” the “folding stability dG unfold” value was 2.38 ± 0.18 kcal/mol. With “SAGGEEVVEEPPPPEVEVIEIRDAETDRTVTLVYNKDTGKLFLFDEDTGLVYEFDVDGRLVRVERLPPSAGG [r13_101_TrROS_Hall]” the “folding stability dG unfold” value was 4.16 ± 0.39 kcal/mol. For “SAGGSAGGSAGGSMVKVEKNGEGVVTTTTKYFFYPSTGKWSSETITTTKKVPKDEPFPLSAGGSAGGSAGGS [r4_215_JUSTAS]”, the “folding stability dG unfold” value was -0.0856 ± 0.23 kcal/mol. In the case of “SAGGSAGGSAMKTSSGTVSFPDSTVKLSYENFGDGSVKKSVVEVVSRPPPPPVPPSNPHYLQSAGGSAGGSA [r18_176_JUSTAS]”, the “folding stability dG unfold” value is reported as 0.702 ± 0.39 kcal/mol. In the case of “SAGGSASSMPVTLTLLLTRPDGTPLTLPFEAETLEEAIERGTALAQELIAELGDPNMKITGLEVVPSAGGSA [r15_698_JUSTAS]”, the “folding stability dG unfold” value is reported as 1.22 ± 0.1 kcal/mol. For “SAGSAEELKEKIREELRERLAKELGYPNIEIKKVEVLKYDPETGTITVKVELKLPDGKELTLTITVPVKSAG [r5_20_JUSTAS]”, the “folding stability dG unfold” value was 3.9 ± 0.41 kcal/mol.
